Experimental data as given in patent US6403765B1, “Truncated Apaf-1 and methods of use thereof” (Thomas Jefferson University, priority 1998, dated 2002).

T1: procaspase-9 (Homo sapiens, UniProt P55211)
T1 construct: schematic representation of full length procaspase-9; made in house; host or cells: coupled in vitro transcription/translation in rabbit reticulocyte lysate (TNT Kit, Promega)
T1 sequence (P55211 1-416): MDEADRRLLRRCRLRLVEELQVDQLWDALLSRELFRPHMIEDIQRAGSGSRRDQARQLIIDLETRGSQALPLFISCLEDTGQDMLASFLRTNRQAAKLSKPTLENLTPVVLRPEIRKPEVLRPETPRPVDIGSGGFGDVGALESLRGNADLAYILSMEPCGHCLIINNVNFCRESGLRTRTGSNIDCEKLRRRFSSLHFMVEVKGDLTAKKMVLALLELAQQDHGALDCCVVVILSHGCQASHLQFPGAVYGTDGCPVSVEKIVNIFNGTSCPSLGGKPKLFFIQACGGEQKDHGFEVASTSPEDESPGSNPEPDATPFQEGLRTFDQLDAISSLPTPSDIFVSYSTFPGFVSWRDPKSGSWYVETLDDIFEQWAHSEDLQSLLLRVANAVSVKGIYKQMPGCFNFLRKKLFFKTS


Experiments:
T7-tagged Bcl-xL = molecular target: T2, T7-tagged Bcl-xL (Homo sapiens, UniProt Q07817); assay: Co-immunoprecipitation of Flag-tagged Apaf-1 variants or procaspase-9 with T7-tagged Bcl-xL in 293 cells; type: binding; settings: anti-Flag immunoprecipitation, anti-T7 blot, 36 hours, FIG. 16
T2 construct: expressed in transfected cells; host or cells: 293 cells
Protocol: In vivo interaction experiments between Apaf-1 variants and Bcl-xL were performed. To analyze the ability of Apaf-1 to interact with Bcl-xL, 293 cells were co-transfected with constructs encoding T7-tagged Bcl-xL and constructs encoding Flag-tagged Apaf-97 (FIG. 16, lane 1), Apaf-1 (FIG. 16, lane 2), Apaf-530 (FIG. 16, lane 3) Apaf-530ΔCARD (FIG. 16, lane 4), or procaspase-9 C287A (FIG. 16, lane 5). After 36 hours, extracts were prepared and immunoprecipitated with a monoclonal antibody to the Flag epitope. The immunoprecipitates (FIG. 16, upper panel) were analyzed by SDS-PAGE and immunoblotted with a horseradish peroxidase-conjugated T7 antibody. The corresponding cellular extracts were also analyzed by SDS-PAGE and immunoblotted with a horseradish peroxides-conjugated T7 antibody (FIG. 16, middle panel) or an anti-Flag antibody (FIG. 16, lower panel).

procaspase-9 = molecular target: T1, procaspase-9; assay: In vitro caspase 9 activation assay: recombinant Apaf-1 variants incubated with in vitro translated procaspase-9; type: biochemical; settings: bacterial lysates with truncated Apaf-1 variants, FIG. 2B
Protocol: SDS sample buffer was then added to each sample, boiled and subjected to SDS-PAGE analysis followed by autoradiography. In FIG. 2A procaspase-9 was in vitro translated in the presence of ^35S-methionine. Following translation procaspase-9 was desalted by gel filtration through a biospin column (BioRad) to remove unincorporated methionine and free nucleotides. Desalted procaspase-9 was then incubated with 200 ng Ni^2+-affinity purified bacterially expressed recombinant Apaf-530 (WT or K149R mutant) in the presence or absence of cytochrome c or dATP or both for 2 h at 30° C. A mock sample containing Ni^2+-affinity purified material from bacteria transformed with an empty vector was used as a negative control. Following incubation the products were analyzed by SDS-PAGE and autoradiography. In FIG. 2B^35S-labeled procaspase-9 (as described above) was incubated with bacterial lysates containing truncated Apaf-1 variants as indicated and then analyzed as above (2B upper panel). The bacterial lysates were analyzed by SDS-PAGE and immunoblotted with an Apaf-1 antibody which recognizes the N-terminus of Apaf-1 (lanes 2-6) and an anti T7-tag antibody (lanes 7-8) to confirm expression and equivalent concentration of the different Apaf-1 variants (2B lowerpanel). The molecular mass markers are indicated to the right of the lower panel.
^35S-labeled caspases were obtained by in vitro translation in the presence of ^35S-methionine using a coupled transcription/translation system in rabbit reticulocyte lysate using TNT Kit (Promega) according to the manufacturer's recommendations.
To determine the role of the WD-40 repeat in the mechanism of Apaf-1-induced processing of procaspase-9, truncated Apaf-1 (Apaf-530) lacking its WD-40 repeats (FIG. 1) was expressed and purified. To reconstitute a recombinant caspase-9 activation system, the truncated Apaf-530 was incubated with in vitro translated recombinant procaspase-9 in the presence or absence of cytochrome c and dATP. […] It was previously shown that mutation of CED-4 K165R which is required for nucleotide binding destroys its activity (Chinnaiyan et al., Nature 388:728-729, 1997; Jarnes et al., Curr. Biol. 7:246-252, 1997; Seshagiri and Miller, Curr. Biol. 7:455-460, 1997). […] Therefore, either binding of Apaf-1 to cytochrome c and dATP or deletion of the repeats could induce a conformational change enabling Apaf-1 to bind and process procaspase-9.
In FIG. 3, ^35S-labeled WT or mutant D330A, D315A or C287A mutants of procaspase-9 or prodomainless procaspase-9 (Δpro, residues 134-416) were incubated with buffer (lanes 1, 4, 7, 10, 13), purified Apaf-530 (lanes 2, 5, 8, 11, 14) or mock purified material (lanes, 3, 6, 9, 12, 15) and then analyzed by SDS-PAGE and autoradiography.

T2 sequence (Q07817 whole entry): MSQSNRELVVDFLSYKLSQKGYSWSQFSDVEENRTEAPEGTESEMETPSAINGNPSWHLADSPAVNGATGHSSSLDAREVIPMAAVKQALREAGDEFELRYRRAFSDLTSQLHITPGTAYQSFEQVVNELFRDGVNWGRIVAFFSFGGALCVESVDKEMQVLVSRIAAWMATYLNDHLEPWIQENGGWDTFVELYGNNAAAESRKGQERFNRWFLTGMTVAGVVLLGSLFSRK

activity of the Apaf-1 variant in promoting activation of procaspase-9 (procaspase-9) | Molecule | further results
– | procaspase-9: Flag-tagged procaspase-9 C287A co-transfected with T7-tagged Bcl-xL (protein, UniProt P55211 1-416, looked up, variant C287A, pro-form Flag tag, Flag-tagged procaspase-9 C287A co-transfected with T7-tagged Bcl-xL) pro-form: MDEADRRLLRRCRLRLVEELQVDQLWDALLSRELFRPHMIEDIQRAGSGSRRDQARQLIIDLETRGSQALPLFISCLEDTGQDMLASFLRTNRQAAKLSKPTLENLTPVVLRPEIRKPEVLRPETPRPVDIGSGGFGDVGALESLRGNADLAYILSMEPCGHCLIINNVNFCRESGLRTRTGSNIDCEKLRRRFSSLHFMVEVKGDLTAKKMVLALLELAQQDHGALDCCVVVILSHGCQASHLQFPGAVYGTDGCPVSVEKIVNIFNGTSCPSLGGKPKLFFIQAAGGEQKDHGFEVASTSPEDESPGSNPEPDATPFQEGLRTFDQLDAISSLPTPSDIFVSYSTFPGFVSWRDPKSGSWYVETLDDIFEQWAHSEDLQSLLLRVANAVSVKGIYKQMPGCFNFLRKKLFFKTS | co-immunoprecipitation with Bcl-xL (T7-tagged Bcl-xL): capable of immunoprecipitating
– | Apaf-420: truncated Apaf-1, residues 1-420, minimal conserved sequence between Apaf-1 and CED-4 (protein, UniProt O14727 1-420, looked up, fragment) MDAKARNCLLQHREALEKDIKTSYIMDHMISDGFLTISEEEKVRNEPTQQQRAAMLIKMILKKDNDSYVSFYNALLHEGYKDLAALLHDGIPVVSSSSGKDSVSGITSYVRTVLCEGGVPQRPVVFVTRKKLVNAIQQKLSKLKGEPGWVTIHGMAGCGKSVLAAEAVRDHSLLEGCFPGGVHWVSVGKQDKSGLLMKLQNLCTRLDQDESFSQRLPLNIEEAKDRLRILMLRKHPRSLLILDDVWDSWVLKAFDSQCQILLTTRDKSVTDSVMGPKYVVPVESSLGKEKGLEILSLFVNMKKADLPEQAHSIIKECKGSPLVVSLIGALLRDFPNRWEYYLKQLQNKQFKRIRKSSSYDYEALDEAMSISVEMLREDIKDYYTDLSILQKDVKVPTKVLCILWDMETEEVEDILQEFVN | less activity than Apaf-530 in promoting procaspase-9 processing (procaspase-9): ~90%
inactive | Apaf-WD: WD-40 repeat region of Apaf-1, residues 530-1194 (protein, UniProt O14727 530-1194, looked up, fragment) RHILDEKDCAVSENFQEFLSLNGHLLGRQPFPNIVQLGLCEPETSEVYQQAKLQAKQEVDNGMLYLEWINKKNITNLSRLVVRPHTDAVYHACFSEDGQRIASCGADKTLQVFKAETGEKLLEIKAHEDEVLCCAFSTDDRFIATCSVDKKVKIWNSMTGELVHTYDEHSEQVNCCHFTNSSHHLLLATGSSDCFLKLWDLNQKECRNTMFGHTNSVNHCRFSPDDKLLASCSADGTLKLWDATSANERKSINVKQFFLNLEDPQEDMEVIVKCCSWSADGARIMVAAKNKIFLFDIHTSGLLGEIHTGHHSTIQYCDFSPQNHLAVVALSQYCVELWNTDSRSKVADCRGHLSWVHGVMFSPDGSSFLTSSDDQTIRLWETKKVCKNSAVMLKQEVDVVFQENEVMVLAVDHIRRLQLINGRTGQIDYLTEAQVSCCCLSPHLQYIAFGDENGAIEILELVNNRIFQSRFQHKKTVWHIQFTADEKTLISSSDDAEIQVWNWQLDKCIFLRGHQETVKDFRLLKNSRLLSWSFDGTVKVWNIITGNKEKDFVCHQGTVLSCDISHDATKFSSTSADKTAKIWSFDLLLPLHELRGHNGCVRCSAFSVDSTLLATGDDNGEIRIWNVSNGELLHLCAPLSEEGAATHGGWVTDLCFSPDGKMLIS | –
further reduced its activity | Apaf-350: truncated Apaf-1, residues 1-350 (protein, UniProt O14727 1-350, looked up, fragment) MDAKARNCLLQHREALEKDIKTSYIMDHMISDGFLTISEEEKVRNEPTQQQRAAMLIKMILKKDNDSYVSFYNALLHEGYKDLAALLHDGIPVVSSSSGKDSVSGITSYVRTVLCEGGVPQRPVVFVTRKKLVNAIQQKLSKLKGEPGWVTIHGMAGCGKSVLAAEAVRDHSLLEGCFPGGVHWVSVGKQDKSGLLMKLQNLCTRLDQDESFSQRLPLNIEEAKDRLRILMLRKHPRSLLILDDVWDSWVLKAFDSQCQILLTTRDKSVTDSVMGPKYVVPVESSLGKEKGLEILSLFVNMKKADLPEQAHSIIKECKGSPLVVSLIGALLRDFPNRWEYYLKQLQNKQF | –
